Molecular target: T1, wild-type MBP–CHIP (C-terminus of HSC70-interacting protein, encoded by STUB1) (human), Q9UNE7
T1 chain: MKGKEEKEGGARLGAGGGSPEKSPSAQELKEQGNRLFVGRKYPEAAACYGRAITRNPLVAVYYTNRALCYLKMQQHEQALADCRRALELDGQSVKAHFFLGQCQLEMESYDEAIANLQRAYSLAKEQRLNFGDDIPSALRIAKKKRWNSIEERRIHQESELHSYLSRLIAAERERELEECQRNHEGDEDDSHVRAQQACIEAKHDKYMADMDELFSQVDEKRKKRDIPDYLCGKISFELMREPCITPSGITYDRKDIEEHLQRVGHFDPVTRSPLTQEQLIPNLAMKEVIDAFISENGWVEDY
Assay: native gel or EMSA; 5 µg MBP–CHIP in Native Sample Buffer on a 10% gel, 4 °C, 3 h at 140 V, Tris/glycine (25 mM Tris, 192 mM glycine) pH 8.3; Coomassie staining, bands analysed by Fiji (ImageJ); self-association (monomer, dimer, higher-order oligomers)
Settings: remark: other sources report otherwise

stoichiometry N: 2
B1: wild-type MBP–CHIP (C-terminus of HSC70-interacting protein, encoded by STUB1), Q9UNE7-1 1-303 (natural protein)
chain: MKGKEEKEGGARLGAGGGSPEKSPSAQELKEQGNRLFVGRKYPEAAACYGRAITRNPLVAVYYTNRALCYLKMQQHEQALADCRRALELDGQSVKAHFFLGQCQLEMESYDEAIANLQRAYSLAKEQRLNFGDDIPSALRIAKKKRWNSIEERRIHQESELHSYLSRLIAAERERELEECQRNHEGDEDDSHVRAQQACIEAKHDKYMADMDELFSQVDEKRKKRDIPDYLCGKISFELMREPCITPSGITYDRKDIEEHLQRVGHFDPVTRSPLTQEQLIPNLAMKEVIDAFISENGWVEDY

— paper PMC8199271
